Reference: patent US20190270817A1

Assays:
cynoPD1(1-167)-Flag-His = cynoPD1(1-167)-Flag-His (UniProt Q15116); experiment: Octet
IL-21R on Hut78 T cells = IL-21R on Hut78 T cells (UniProt Q9HBE5); experiment: cell-based or functional assay
[1] = target: human PD-1 on cells (human) (UniProt Q15116); experiment: cell-based or functional assay
[2] = target: human IL-21R, recombinant soluble (FLAG-His or Fc, not stated which) (human) (UniProt Q9HBE5); experiment: not stated in the table (Octet per Example 11)
Chain of human IL-21R, recombinant soluble (FLAG-His or Fc, not stated which) (human) (Q9HBE5 20-232 limits assumed): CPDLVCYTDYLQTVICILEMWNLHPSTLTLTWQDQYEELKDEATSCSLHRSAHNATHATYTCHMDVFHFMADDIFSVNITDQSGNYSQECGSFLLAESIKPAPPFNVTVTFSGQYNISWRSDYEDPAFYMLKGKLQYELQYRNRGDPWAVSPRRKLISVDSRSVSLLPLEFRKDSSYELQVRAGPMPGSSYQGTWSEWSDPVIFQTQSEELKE

[3] = target: human PD-1(1-170)-FLAG-His (human) (UniProt Q15116); experiment: not stated in the table (Octet per Example 11)
Chain of human PD-1(1-170)-FLAG-His (human) (Q15116 21-170 limits assumed): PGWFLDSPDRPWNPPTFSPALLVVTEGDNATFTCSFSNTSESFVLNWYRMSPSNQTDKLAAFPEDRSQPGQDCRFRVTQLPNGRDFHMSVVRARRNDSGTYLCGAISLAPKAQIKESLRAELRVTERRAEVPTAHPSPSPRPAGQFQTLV

IL-21R-Fc = IL-21R-Fc (UniProt Q9HBE5); experiment: ForteBio Octet
Chain of IL-21R-Fc (Q9HBE5 20-232 limits assumed): as the sequence (Q9HBE5 20-232 limits assumed) above

[4] = target: cynomolgus monkey IL-21R-FLAG-His (monovalent) (cynomolgus monkey) (UniProt G7Q0S8); experiment: Octet, immobilized monovalent IL-21R-his
[5] = target: human IL-21R-FLAG-His (monovalent) (human) (UniProt Q9HBE5); experiment: Octet, immobilized monovalent IL-21R-his
Chain of human IL-21R-FLAG-His (monovalent) (human) (Q9HBE5 20-232 limits assumed): as above

[6] = target: cynomolgus monkey PD-1(1-167)-FLAG-His (cynomolgus monkey); experiment: Octet, fusion amine-coupled to tips
Chain of cynomolgus monkey PD-1(1-167)-FLAG-His (cynomolgus monkey) (Q15116 other isoform, or with tags, fused parts or gaps): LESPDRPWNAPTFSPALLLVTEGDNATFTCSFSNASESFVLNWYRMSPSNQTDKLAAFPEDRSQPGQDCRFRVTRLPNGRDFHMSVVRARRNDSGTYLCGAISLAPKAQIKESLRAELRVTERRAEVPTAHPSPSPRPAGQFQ

[7] = target: human PD-1(1-170)-FLAG-His (human) (UniProt Q15116); experiment: Octet, fusion amine-coupled to tips

Chain of IL-21R on Hut78 T cells (Q9HBE5 20-538 limits assumed): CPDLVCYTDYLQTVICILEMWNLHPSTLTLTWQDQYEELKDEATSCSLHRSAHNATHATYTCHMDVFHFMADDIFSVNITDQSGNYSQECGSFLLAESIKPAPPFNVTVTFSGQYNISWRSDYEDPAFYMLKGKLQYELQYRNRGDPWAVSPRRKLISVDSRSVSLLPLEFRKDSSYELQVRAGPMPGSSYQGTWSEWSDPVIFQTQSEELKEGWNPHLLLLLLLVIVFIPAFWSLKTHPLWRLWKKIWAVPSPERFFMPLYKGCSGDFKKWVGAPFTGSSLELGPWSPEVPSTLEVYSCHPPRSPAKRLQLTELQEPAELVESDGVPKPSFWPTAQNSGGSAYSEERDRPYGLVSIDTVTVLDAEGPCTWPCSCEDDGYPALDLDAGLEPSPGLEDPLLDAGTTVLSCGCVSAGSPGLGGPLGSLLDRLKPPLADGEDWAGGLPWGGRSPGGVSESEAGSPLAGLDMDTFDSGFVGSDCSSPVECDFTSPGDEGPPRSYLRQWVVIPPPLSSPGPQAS
Chain of cynoPD1(1-167)-Flag-His (Q15116 other isoform, or with tags, fused parts or gaps): as the sequence (Q15116 other isoform, or with tags, fused parts or gaps) above
Chain of human PD-1 on cells (human) (Q15116 25-288 limits assumed): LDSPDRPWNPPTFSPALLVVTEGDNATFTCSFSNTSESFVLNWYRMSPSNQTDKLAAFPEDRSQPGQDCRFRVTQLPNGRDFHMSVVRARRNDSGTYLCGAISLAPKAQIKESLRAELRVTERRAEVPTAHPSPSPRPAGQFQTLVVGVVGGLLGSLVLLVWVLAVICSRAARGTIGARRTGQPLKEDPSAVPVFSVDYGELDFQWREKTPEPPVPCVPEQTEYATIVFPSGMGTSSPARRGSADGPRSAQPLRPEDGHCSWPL

Row | Substance | Kd (IL-21R-Fc) [nM] | further results
1 | Nivo huIgG1 mAb | – | Kd (cynoPD1(1-167)-Flag-His): 3.5 nM
2 | PD1 mAb x R9E:R76A monomer (chimera, mouse IgG1 constant region, C-terminal human IL-21 R9E:R76A) | – | Hut78 PD1 (+) Interpolated EC50 (IL-21R on Hut78 T cells): 1.97 nM; Hut78 PD-1 (-) Interpolated EC50 (IL-21R on Hut78 T cells): > 1000 nM; PD-1 reporter Interpolated EC50 [1]: 1.61 nM; Kd [2]: > 300 nM; Kd [3]: 2.6 nM
3 | PD-1 mAb x IL-21 D15M (Mutant c9) (from UniProt Q9HBE4 30-162) | 0.163 | –
4 | PD-1 mAb x IL-21 D15V (Mutant C14) (from UniProt Q9HBE4 30-162) | 5.47 | –
5 | PD-1 mAb x IL-21 I14S (Mutant c5) (from UniProt Q9HBE4 30-162) | 0.166 | –
6 | PD-1 mAb x IL-21 I16D (Mutant 44) (from UniProt Q9HBE4 30-162) | 0.094 | –
7 | PD-1 mAb x IL-21 I66D (Mutant 51) (from UniProt Q9HBE4 30-162) | 0.677 | –
8 | PD-1 mAb x IL-21 K72D (Mutant 60) (from UniProt Q9HBE4 30-162) | 0.235 | –
9 | PD-1 mAb x IL-21 K72G (Mutant 61) (from UniProt Q9HBE4 30-162) | 0.25 | –
10 | PD-1 mAb x IL-21 K73D (Mutant 64) (from UniProt Q9HBE4 30-162) | 0.435 | –
11 | PD-1 mAb x IL-21 K73G (Mutant 66) (from UniProt Q9HBE4 30-162) | 0.253 | –
12 | PD-1 mAb x IL-21 K75G (Mutant 75) (from UniProt Q9HBE4 30-162) | 0.163 | –
13 | PD-1 mAb x IL-21 L13D (Mutant 43) (from UniProt Q9HBE4 30-162) | 11 | –
14 | PD-1 mAb x IL-21 P78D (Mutant 96) (from UniProt Q9HBE4 30-162) | 1.23 | –
15 | PD-1 mAb x IL-21 Q19D (Mutant 46) (from UniProt Q9HBE4 30-162) | 0.17 | –
16 | PD-1 mAb x IL-21 R9G (Mutant 24) (from UniProt Q9HBE4 30-162) | 40 | –
17 | PD-1 mAb x IL-21 R9Y (Mutant 35) (from UniProt Q9HBE4 30-162) | 0.63 | –
18 | PD-1 mAb x IL-21 R11D (Mutant c1) (from UniProt Q9HBE4 30-162) | 0.411 | –
19 | PD-1 mAb x IL-21 R76A (Mutant 77) | – | Kd [4]: > 10 nM; Kd [5]: > 10 nM
20 | PD-1 mAb x IL-21 R76E (Mutant 79) | – | Kd [4]: > 10 nM; Kd [5]: > 10 nM
21 | PD-1 mAb x IL-21 R76M (Mutant 85) (from UniProt Q9HBE4 30-162) | 0.6 | –
22 | PD-1 mAb x IL-21 R76P (Mutant 87) (from UniProt Q9HBE4 30-162) | 0.4 | –
23 | PD-1 mAb x IL-21 R76Y (Mutant 92) (from UniProt Q9HBE4 30-162) | 0.265 | –
24 | anti-PD-1 mAb fused to an IL-21 (R5Q:R76E) mutein (monomer) | – | pSTAT3 EC50, Hut78/PD-1 (IL-21R on Hut78 T cells): 341 pM
25 | anti-PD-1 mAb x IL-21 R5E:R76A homodimer fusion | – | pSTAT3 EC50, Hut78 PD-1+ T cells (n1) (IL-21R on Hut78 T cells): 1.98 nM; pSTAT3 EC50, Hut78 PD-1+ T cells (n2) (IL-21R on Hut78 T cells): 1.49 nM; pSTAT3 EC50, Hut78 PD-1- T cells (n1) (IL-21R on Hut78 T cells): > 1 µM; pSTAT3 EC50, Hut78 PD-1- T cells (n2) (IL-21R on Hut78 T cells): > 1 µM; Kd [6]: 5.9 nM; Kd [7]: 7 nM; Kd [4]: > 300 nM; Kd [5]: > 300 nM
26 | anti-PD-1 mAb x IL-21 R5Q:R76E homodimer fusion | – | Kd [4]: > 300 nM; Kd [5]: > 300 nM
27 | anti-PD-1 mAb x IL-21 R9E:R76A homodimer fusion | – | pSTAT3 EC50, Hut78 PD-1+ T cells (n1) (IL-21R on Hut78 T cells): 16.6 nM; pSTAT3 EC50, Hut78 PD-1- T cells (n1) (IL-21R on Hut78 T cells): > 1 µM; pSTAT3 EC50, Hut78 PD-1- T cells (n2) (IL-21R on Hut78 T cells): > 1 µM; Kd [6]: 5.9 nM; Kd [7]: 8.9 nM; Kd [4]: > 300 nM; Kd [5]: > 300 nM
28 | anti-TIGIT mAb fused to an IL-21 (R5Q:R76E) mutein (dimer) | – | pSTAT3 EC50, Hut78/TIGIT (IL-21R on Hut78 T cells): 1390 pM

Further lines, with some results ahead:

Row | Kd (IL-21R-Fc) [nM] | Substance | further results
29 | 0.439 | PD-1 mAb x IL-21 D15A (Mutant c6) (from UniProt Q9HBE4 30-162) | –
30 | 0.249 | PD-1 mAb x IL-21 D15E (Mutant c7) (from UniProt Q9HBE4 30-162) | –
31 | 11 | PD-1 mAb x IL-21 D15N (Mutant C10) (from UniProt Q9HBE4 30-162) | –
32 | 6.6 | PD-1 mAb x IL-21 D15S (Mutant C12) (from UniProt Q9HBE4 30-162) | –
33 | 4 | PD-1 mAb x IL-21 I8S (Mutant 20) (from UniProt Q9HBE4 30-162) | –
34 | 4.55 | PD-1 mAb x IL-21 I66G (Mutant 52) (from UniProt Q9HBE4 30-162) | –
35 | 7.11 | PD-1 mAb x IL-21 I66P (Mutant 53) (from UniProt Q9HBE4 30-162) | –
36 | 8.96 | PD-1 mAb x IL-21 K72P (Mutant 62) (from UniProt Q9HBE4 30-162) | –
37 | 0.0525 | PD-1 mAb x IL-21 K73A (Mutant 63) (from UniProt Q9HBE4 30-162) | –
38 | 0.172 | PD-1 mAb x IL-21 K73I (Mutant 68) (from UniProt Q9HBE4 30-162) | –
39 | 0.167 | PD-1 mAb x IL-21 K73S (Mutant 72) (from UniProt Q9HBE4 30-162) | –
40 | 0.658 | PD-1 mAb x IL-21 K77G (Mutant 94) (from UniProt Q9HBE4 30-162) | –
41 | 0.42 | PD-1 mAb x IL-21 Q12D (Mutant 37) (from UniProt Q9HBE4 30-162) | –
42 | 0.031 | PD-1 mAb x IL-21 Q12E (Mutant 38) (from UniProt Q9HBE4 30-162) | –
43 | 0.38 | PD-1 mAb x IL-21 Q12N (Mutant 39) (from UniProt Q9HBE4 30-162) | –
44 | < 0.26 | PD-1 mAb x IL-21 Q12T (Mutant 41) (from UniProt Q9HBE4 30-162) | –
45 | 7.95 | PD-1 mAb x IL-21 Q116E (Mutant C21) (from UniProt Q9HBE4 30-162) | –
46 | 0.237 | PD-1 mAb x IL-21 R5A (Mutant 100) (from UniProt Q9HBE4 30-162) | –
47 | 6.84 | PD-1 mAb x IL-21 R9A (Mutant 21) (from UniProt Q9HBE4 30-162) | –
48 | > 100 | PD-1 mAb x IL-21 R9D (Mutant 22) (from UniProt Q9HBE4 30-162) | –
49 | 0.9 | PD-1 mAb x IL-21 R65P (Mutant 50) (from UniProt Q9HBE4 30-162) | –
50 | 12 | PD-1 mAb x IL-21 R76D (Mutant 78) (from UniProt Q9HBE4 30-162) | –
51 | 15.3 | PD-1 mAb x IL-21 R76N (Mutant 86) (from UniProt Q9HBE4 30-162) | –
52 | 0.518 | PD-1 mAb x IL-21 S70G (Mutant 58) (from UniProt Q9HBE4 30-162) | –
53 | 10 | PD-1 mAb x IL-21 S70P (Mutant 59) (from UniProt Q9HBE4 30-162) | –
54 | 0.237 | PD-1 mAb x IL-21 S70Y (Mutant 101) (from UniProt Q9HBE4 30-162) | –
55 | 0.265 | PD-1 mAb x IL-21 S80G (Mutant 98) (from UniProt Q9HBE4 30-162) | –
56 | 8.1 | PD-1 mAb x IL-21 S113K (Mutant C18) (from UniProt Q9HBE4 30-162) | –
57 | 0.0395 | PD-1 mAb x IL-21 V69D (Mutant 54) (from UniProt Q9HBE4 30-162) | –
